Target: recombinant E protein domain III of DENV-2, flag and hexahistidine tagged (Dengue virus type 2, strain 16681 …, UniProt P29990)
Experiment: SPR
Settings: both partners purified

B1: humanized DB32-6 monoclonal antibody (antibody, V domains shown)
VH: EVQLQQSGAELVKPGASVNLSCTASGFNIKDTYIHWVKQRPEQGLEWIGRIDPENGNAKYDPNFQAKATIAADTSSNTAYLQLSSLTSEDTAVYYCVRTGSFWYFDVWGQGTLVTVSS
VL: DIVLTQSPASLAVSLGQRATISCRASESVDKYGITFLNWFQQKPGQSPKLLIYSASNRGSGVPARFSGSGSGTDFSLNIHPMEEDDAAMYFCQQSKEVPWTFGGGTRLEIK
Kd: 0.18 nM

From article PMC3341331 (PLoS Neglected Tropical Diseases, 2012)
